# Laboratory results reported in IntAct's records for PubMed 21358815.
# B1: BAG family molecular chaperone regulator 5 (Rattus norvegicus (Rat)), Q5QJC9 (parent)
# chain: MDMGNQHPSISRLQEIQREVKSIEQQVVGFSGLSDDKNYKRLERILTKQLFEIDSVDTEGKGDIQQARKRAAQDTERLLKELEQNANHPHRIEIKNIFQEAQALVKEKTVPFYSGSNCVTSEFEEAIQDIILRLTHVKTGGKISLRKARYHTLTKICAVQEIIEDCVRKQPSLPLSEDVHPSVAKINSVMCEVNKARGTLIALLMGVDSSETCRHLSCVLSGLMADLDALDVCGRTEIRNYRREVVEDINKLLKYLDLEEEADNTHAFDLGQNHSIIKIENVLKRMREMKNELLQAQSPPELYLRSKTELQGLIGQLDEVSLEKNPCIREARRRAVIEVQTLITYLDLKEALEKRKLFPCEETPPHKAVWNVLGNLSEIQGEVLSFGGNRTDKNYIRLEELLTKQLLTLDAVDPLGEEKCKAARKQAVKLAQNILSYLDMKSDEWEY
# Variants of: B1
# Conditions: with chip_human STUB1, Q9UNE7
# Sequence of chip_human STUB1, Q9UNE7 (Q9UNE7 whole entry): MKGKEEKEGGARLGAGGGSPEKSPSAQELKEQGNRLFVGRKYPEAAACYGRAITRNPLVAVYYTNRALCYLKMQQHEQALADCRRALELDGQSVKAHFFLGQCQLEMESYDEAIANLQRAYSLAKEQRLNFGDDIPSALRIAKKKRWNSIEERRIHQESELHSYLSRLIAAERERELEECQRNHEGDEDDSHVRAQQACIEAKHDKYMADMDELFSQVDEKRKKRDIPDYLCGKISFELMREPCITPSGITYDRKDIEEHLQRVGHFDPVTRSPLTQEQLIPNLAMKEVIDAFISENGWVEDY
row,effect of a mutation on the interaction,Variant
1,disrupting interaction,D54A;R68A;D228A;R242A;D318A;R332A;D410A;R424A
